Literature values as cited in patent US20040162315A1, “Use of compounds for treating conditions resulting from injury to the corneal nerve after LASIK and other ocular surgeries or trauma” (priority 2002, published 2004).

Tested on: axotomized ocular nerves
Details: single intravitreal injection of 5 μg, administered during the first five days after injury

B1: BDNF: neurotrophin family peptide, TrkB receptor-selective ligand (protein, UniProt P23560 19-247, looked up)
Neurotrophic factor BDNF …: APMKEANIRGQGGLAYPGVRTHGTLESVNGPKAGSRGLTSLADTFEHVIEELLDEDQKVRPNEENNKDADLYTSRVMLSSQVPLEPPLLFLLEEYKNYLDAANMSMRVRRHSDPARRGELSVCDSISEWVTAADKKTAVDMSGGTVTVLEKVPVSKGQLKQYFYETKCNPMGYTKEGCRGIDKRHWNSQCRTTQSYVRALTMDSKKRIGWRFIRIDTSCVCTLTIKRGR
death of the axotomized ocular nerves: prevented the death of the axotomized ocular nerves
